Source: PMC5065627, “LWD–TCP complex activates the morning gene CCA1 in Arabidopsis”

Tests used:
GST-TCP22 = GST-TCP22 (Arabidopsis thaliana, UniProt Q9C7G4 1-375); assay: competition; 20x/40x unlabelled mTBS against labelled TBS; 35 mM KCl, 15 mM HEPES pH 7.5, 0.4 mM EDTA, 6% glycerol, 50 ng/ul poly(dI-dC), 0.05 pmol probe, room temperature, 10 min; conditions: protein: recombinant; tags: GST (N-terminal, pET42a); chain copies: 2; blunt
GST-TCP20 = GST-TCP20 (Arabidopsis thaliana, UniProt Q9LSD5 1-314); assay: as above; conditions: protein: recombinant; tags: GST (N-terminal, pET42a); chain copies: 2; blunt
GST-TCP20, sequence (Q9LSD5 whole entry): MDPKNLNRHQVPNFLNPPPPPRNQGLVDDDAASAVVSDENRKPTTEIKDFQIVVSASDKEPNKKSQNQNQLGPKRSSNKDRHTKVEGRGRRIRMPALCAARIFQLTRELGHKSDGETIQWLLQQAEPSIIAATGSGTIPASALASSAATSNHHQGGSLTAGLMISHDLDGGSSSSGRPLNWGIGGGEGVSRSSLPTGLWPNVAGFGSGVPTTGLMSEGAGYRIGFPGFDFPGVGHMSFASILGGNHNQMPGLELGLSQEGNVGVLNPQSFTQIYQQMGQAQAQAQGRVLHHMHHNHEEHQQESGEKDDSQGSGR

GST-TCP22, sequence (Q9C7G4 whole entry): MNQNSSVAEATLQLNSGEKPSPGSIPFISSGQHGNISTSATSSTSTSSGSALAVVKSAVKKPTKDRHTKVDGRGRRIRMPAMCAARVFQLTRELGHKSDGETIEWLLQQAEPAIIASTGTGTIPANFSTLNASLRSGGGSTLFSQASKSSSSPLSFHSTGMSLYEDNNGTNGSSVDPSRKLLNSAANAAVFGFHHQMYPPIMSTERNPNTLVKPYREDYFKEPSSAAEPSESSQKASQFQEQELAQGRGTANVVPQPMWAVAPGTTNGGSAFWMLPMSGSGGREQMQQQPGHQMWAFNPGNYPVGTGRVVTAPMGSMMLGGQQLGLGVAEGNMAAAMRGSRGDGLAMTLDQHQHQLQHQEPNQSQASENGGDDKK

B1: mTBS 50-bp CCA1 promoter competitor (dsDNA)
DNA 1: GAGATTAACGATCTTAAGTATTGAAACATAGATCAAGATATTATAACGAA
DNA 2: TTCGTTATAATATCTTGATCTATGTTTCAATACTTAAGATCGTTAATCTC
B1: no binding (GST-TCP22); no binding (GST-TCP20).
